T1: Slc1-Cub-LexA-VP16 (S. cerevisiae, UniProt P33333 1-303)
T1 construct: Slc1, lysophosphatidic acid acyltransferase of S. cerevisiae; The end of the tag is read from the order of the printed label; also called Slc1 bait (strain YBG2); pTMBV4-SLC1; not shown: Cub-LexA-VP16, C-terminal, kept
T1 sequence (looked up): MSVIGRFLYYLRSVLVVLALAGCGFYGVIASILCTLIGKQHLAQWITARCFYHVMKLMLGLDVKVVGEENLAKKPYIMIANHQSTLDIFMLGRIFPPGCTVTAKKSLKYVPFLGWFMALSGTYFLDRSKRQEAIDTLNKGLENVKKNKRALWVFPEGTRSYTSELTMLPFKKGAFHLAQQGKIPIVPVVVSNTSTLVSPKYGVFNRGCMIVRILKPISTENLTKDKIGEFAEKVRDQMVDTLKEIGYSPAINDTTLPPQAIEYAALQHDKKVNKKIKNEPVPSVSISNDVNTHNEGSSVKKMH

T2: Ole1-Myc-Cub-LexA-VP16 (S. cerevisiae, UniProt P21147 1-510)
T2 construct: Ole1, Δ9 acyl-CoA (stearoyl-CoA) desaturase of S. cerevisiae; the endogenous chromosomal OLE1 gene, with the tag at its carboxyl end; The tag was put behind the chromosomal gene, so the whole protein is likely; also called Δ9 acyl-CoA desaturase Ole1; Ole1-Cub-LexA-VP16; not shown: Myc, C-terminal, kept; Cub-LexA-VP16, C-terminal, kept
T2 sequence (looked up): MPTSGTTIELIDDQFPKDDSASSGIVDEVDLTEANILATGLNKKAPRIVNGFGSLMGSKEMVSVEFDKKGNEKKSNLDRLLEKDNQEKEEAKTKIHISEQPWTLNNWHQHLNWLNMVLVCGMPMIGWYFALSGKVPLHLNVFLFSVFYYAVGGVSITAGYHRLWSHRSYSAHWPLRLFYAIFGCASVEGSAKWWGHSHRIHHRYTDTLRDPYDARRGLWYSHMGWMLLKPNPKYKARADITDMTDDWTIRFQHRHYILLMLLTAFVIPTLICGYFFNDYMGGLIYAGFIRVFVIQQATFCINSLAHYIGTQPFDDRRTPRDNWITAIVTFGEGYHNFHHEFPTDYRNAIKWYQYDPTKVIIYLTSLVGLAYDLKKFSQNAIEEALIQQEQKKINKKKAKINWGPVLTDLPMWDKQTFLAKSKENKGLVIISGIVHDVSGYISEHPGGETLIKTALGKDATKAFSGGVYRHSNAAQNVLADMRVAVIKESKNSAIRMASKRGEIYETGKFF


Columns and labels:
Slc1-Cub-LexA-VP16 = target: T1, Slc1-Cub-LexA-VP16; assay: two-hybrid; membrane yeast two-hybrid (split ubiquitin): plasmid-borne Slc1-Cub-LexA-VP16 as bait and NubG fusions as prey in NMY51; growth on SD-W-L-H-A with 6 mM 3-aminotriazole and β-galactosidase activity of cell extracts; details: partners not purified
Ole1-Myc-Cub-LexA-VP16 = target: T2, Ole1-Myc-Cub-LexA-VP16; assay: two-hybrid; integrated membrane yeast two-hybrid (split ubiquitin): Ole1-Myc-Cub-LexA-VP16 from the endogenous locus of strain YBG1 as bait, NubG fusions from plasmids as prey; growth on SD-W-H-A with 6 mM 3-aminotriazole and β-galactosidase activity of cell extracts

β-galactosidase activity, fold over Alg5-NubG (Slc1-Cub-LexA-VP16)	β-galactosidase activity, % of wildtype Dga1 (Ole1-Myc-Cub-LexA-VP16; partners not purified)	Binder	other results
		NubG-Sct1 (enzyme, S. cerevisiae, UniProt P32784 1-759, looked up, Sct1, glycerophosphate acyltransferase of S. cerevisiae; also called pNubG-SCT1; pADSL-NubG-SCT1; source: yeast two-hybrid fusion (split ubiquitin prey), from plasmid pADSL-NubG-SCT1 in S. cerevisiae; not shown: NubG, N-terminal, kept) MPAPKLTEKFASSKSTQKTTNYSSIEAKSVKTSADQAYIYQEPSATKKILYSIATWLLYNIFHCFFREIRGRGSFKVPQQGPVIFVAAPHANQFVDPVILMGEVKKSVNRRVSFLIAESSLKQPPIGFLASFFMAIGVVRPQDNLKPAEGTIRVDPTDYKRVIGHDTHFLTDCMPKGLIGLPKSMGFGEIQSIESDTSLTLRKEFKMAKPEIKTALLTGTTYKYAAKVDQSCVYHRVFEHLAHNNCIGIFPEGGSHDRTNLLPLKAGVAIMALGCMDKHPDVNVKIVPCGMNYFHPHKFRSRAVVEFGDPIEIPKELVAKYHNPETNRDAVKELLDTISKGLQSVTVTCSDYETLMVVQTIRRLYMTQFSTKLPLPLIVEMNRRMVKGYEFYRNDPKIADLTKDIMAYNAALRHYNLPDHLVEEAKVNFAKNLGLVFFRSIGLCILFSLAMPGIIMFSPVFILAKRISQEKARTALSKSTVKIKANDVIATWKILIGMGFAPLLYIFWSVLITYYLRHKPWNKIYVFSGSYISCVIVTYSALIVGDIGMDGFKSLRPLVLSLTSPKGLQKLQKDRRNLAERIIEVVNNFGSELFPDFDSAALREEFDVIDEEEEDRKTSELNRRKMLRKQKIKRQEKDSSSPIISQRDNHDAYEHHNQDSDGVSLVNSDNSLSNIPLFSSTFHRKSESSLASTSVAPSSSSEFEVENEILEEKNGLASKIAQAVLNKRIGENTAREEEEEEEEEEEEEEEEEEGKEGDA	β-galactosidase activity, fold of the negative control (Slc1-Cub-LexA-VP16): 3 fold of the negative control; β-galactosidase activity, fold of the negative control Alg5-NubG (fold of the negative control) (Ole1-Myc-Cub-LexA-VP16): 2
17 fold over Alg5-NubG		NubG-Dga1 (full-length NubG-Dga1 fusion) (enzyme, S. cerevisiae, UniProt Q08650 1-418, looked up, Dga1, diacylglycerol acyltransferase of S. cerevisiae; DGA1 amplified from W303 genomic DNA; 418 residues by the printed ranges; also called pNubG-DGA1; pADSL-NubG-DGA1; source: yeast two-hybrid fusion (split ubiquitin prey), from plasmid pADSL-NubG-DGA1 in S. cerevisiae; not shown: NubG, N-terminal, kept) MSGTFNDIRRRKKEEGSPTAGITERHENKSLSSIDKREQTLKPQLESCCPLATPFERRLQTLAVAWHTSSFVLFSIFTLFAISTPALWVLAIPYMIYFFFDRSPATGEVVNRYSLRFRSLPIWKWYCDYFPISLIKTVNLKPTFTLSKNKRVNEKNYKIRLWPTKYSINLKSNSTIDYRNQECTGPTYLFGYHPHGIGALGAFGAFATEGCNYSKIFPGIPISLMTLVTQFHIPLYRDYLLALGISSVSRKNALRTLSKNQSICIVVGGARESLLSSTNGTQLILNKRKGFIKLAIQTGNINLVPVFAFGEVDCYNVLSTKKDSVLGKMQLWFKENFGFTIPIFYARGLFNYDFGLLPFRAPINVVVGRPIYVEKKITNPPDDVVNHFHDLYIAELKRLYYENREKYGVPDAELKIVG	β-galactosidase activity, fold over the negative control Alg5-NubG (fold over the negative control) (Ole1-Myc-Cub-LexA-VP16): 11
	~60 % of wildtype Dga1	NubG-Dga1KR (Dga1 K397A, R398A) (enzyme, S. cerevisiae, UniProt Q08650 1-418, looked up, Dga1 of S. cerevisiae, charged-to-alanine mutant made in pADSL-NubG-DGA1 (the full-length fusion); source: yeast two-hybrid fusion (split ubiquitin prey), synthetic DNA fragment assembled into pADSL-NubG-DGA1, in S. cerevisiae; not shown: NubG, N-terminal, kept) MSGTFNDIRRRKKEEGSPTAGITERHENKSLSSIDKREQTLKPQLESCCPLATPFERRLQTLAVAWHTSSFVLFSIFTLFAISTPALWVLAIPYMIYFFFDRSPATGEVVNRYSLRFRSLPIWKWYCDYFPISLIKTVNLKPTFTLSKNKRVNEKNYKIRLWPTKYSINLKSNSTIDYRNQECTGPTYLFGYHPHGIGALGAFGAFATEGCNYSKIFPGIPISLMTLVTQFHIPLYRDYLLALGISSVSRKNALRTLSKNQSICIVVGGARESLLSSTNGTQLILNKRKGFIKLAIQTGNINLVPVFAFGEVDCYNVLSTKKDSVLGKMQLWFKENFGFTIPIFYARGLFNYDFGLLPFRAPINVVVGRPIYVEKKITNPPDDVVNHFHDLYIAELAALYYENREKYGVPDAELKIVG	
	~60 % of wildtype Dga1	NubG-Dga1DEK (Dga1 D411A, E413A, K415A) (enzyme, S. cerevisiae, UniProt Q08650 1-418, looked up, Dga1 of S. cerevisiae, charged-to-alanine mutant made in pADSL-NubG-DGA1 (the full-length fusion); source: yeast two-hybrid fusion (split ubiquitin prey), synthetic DNA fragment assembled into pADSL-NubG-DGA1, in S. cerevisiae; not shown: NubG, N-terminal, kept) MSGTFNDIRRRKKEEGSPTAGITERHENKSLSSIDKREQTLKPQLESCCPLATPFERRLQTLAVAWHTSSFVLFSIFTLFAISTPALWVLAIPYMIYFFFDRSPATGEVVNRYSLRFRSLPIWKWYCDYFPISLIKTVNLKPTFTLSKNKRVNEKNYKIRLWPTKYSINLKSNSTIDYRNQECTGPTYLFGYHPHGIGALGAFGAFATEGCNYSKIFPGIPISLMTLVTQFHIPLYRDYLLALGISSVSRKNALRTLSKNQSICIVVGGARESLLSSTNGTQLILNKRKGFIKLAIQTGNINLVPVFAFGEVDCYNVLSTKKDSVLGKMQLWFKENFGFTIPIFYARGLFNYDFGLLPFRAPINVVVGRPIYVEKKITNPPDDVVNHFHDLYIAELKRLYYENREKYGVPAAALAIVG	
		NubG-Slc1 (enzyme, S. cerevisiae, UniProt P33333 1-303, looked up, Slc1, lysophosphatidic acid acyltransferase of S. cerevisiae; 'the SLC1 open reading frame was amplified from S. cerevisiae genomic DNA'; also called pADSL-NubG-SLC1; source: yeast two-hybrid fusion (split ubiquitin prey), from plasmid pADSL-NubG-SLC1 in S. cerevisiae; not shown: NubG, N-terminal, kept) MSVIGRFLYYLRSVLVVLALAGCGFYGVIASILCTLIGKQHLAQWITARCFYHVMKLMLGLDVKVVGEENLAKKPYIMIANHQSTLDIFMLGRIFPPGCTVTAKKSLKYVPFLGWFMALSGTYFLDRSKRQEAIDTLNKGLENVKKNKRALWVFPEGTRSYTSELTMLPFKKGAFHLAQQGKIPIVPVVVSNTSTLVSPKYGVFNRGCMIVRILKPISTENLTKDKIGEFAEKVRDQMVDTLKEIGYSPAINDTTLPPQAIEYAALQHDKKVNKKIKNEPVPSVSISNDVNTHNEGSSVKKMH	β-galactosidase activity, fold over the negative control Alg5-NubG (Ole1-Myc-Cub-LexA-VP16; partners not purified): 9 fold over the negative control
~10 fold over Alg5-NubG		NubG-Gpt2 (enzyme, S. cerevisiae, UniProt P36148 1-743, looked up, Gpt2, glycerophosphate acyltransferase of S. cerevisiae; also called pNubG-GPT2; pADSL-NubG-GPT2; source: yeast two-hybrid fusion (split ubiquitin prey), from plasmid pADSL-NubG-GPT2 in S. cerevisiae; not shown: NubG, N-terminal, kept) MSAPAADHNAAKPIPHVPQASRRYKNSYNGFVYNIHTWLYDVSVFLFNILFTIFFREIKVRGAYNVPEVGVPTILVCAPHANQFIDPALVMSQTRLLKTSAGKSRSRMPCFVTAESSFKKRFISFFGHAMGGIPVPRIQDNLKPVDENLEIYAPDLKNHPEIIKGRSKNPQTTPVNFTKRFSAKSLLGLPDYLSNAQIKEIPDDETIILSSPFRTSKSKVVELLTNGTNFKYAEKIDNTETFQSVFDHLHTKGCVGIFPEGGSHDRPSLLPIKAGVAIMALGAVAADPTMKVAVVPCGLHYFHRNKFRSRAVLEYGEPIVVDGKYGEMYKDSPRETVSKLLKKITNSLFSVTENAPDYDTLMVIQAARRLYQPVKVRLPLPAIVEINRRLLFGYSKFKDDPRIIHLKKLVYDYNRKLDSVGLKDHQVMQLKTTKLEALRCFVTLIVRLIKFSVFAILSLPGSILFTPIFIICRVYSEKKAKEGLKKSLVKIKGTDLLATWKLIVALILAPILYVTYSILLIILARKQHYCRIWVPSNNAFIQFVYFYALLVFTTYSSLKTGEIGVDLFKSLRPLFVSIVYPGKKIEEIQTTRKNLSLELTAVCNDLGPLVFPDYDKLATEIFSKRDGYDVSSDAESSISRMSVQSRSRSSSIHSIGSLASNALSRVNSRGSLTDIPIFSDAKQGQWKSEGETSEDEDEFDEKNPAIVQTARSSDLNKENSRNTNISSKIASLVRQKREHEKKE	

Reference: publication PMC10302205, “Saccharomyces cerevisiae Δ9-desaturase Ole1 forms a supercomplex with Slc1 and Dga1” (The Journal of Biological Chemistry, 2023)
